Experimental data reported in patent US20040052799A1, “Nucleic acid and amino acid sequences relating to Helicobacter pylori for diagnostics and therapeutics” (Astra Aktiebolag, priority 1996, published 2004).

System: N[C@@H](CC=O)C(=O)O
Experiment: purified protein, by the assay type
Details: other: pH 8.0

H. pylori Asd (Helicobacter pylori J99)
Km: 54 µM
